B1: BEX1 (parent)
chain: HSLRAVSTDPPHHDHHDEFCLMP
B2: BCL2L13 (parent)
chain: MASSSTVPLGFHYETKYVVLSYLG

Variants of: B1
Assay: protein stability index of a GFP-peptide fusion (GPS, HEK-293T) (PSI 1-6); higher = more stable
Conditions: c terminus: native

Protein stability index: each site, then its substitutions
P11: H 2.62
H15: I 2.19; N 2.07; R 2.15
H16: P 2.78; V 2
C20: D 2.69; Y 2.92; T 2.3; P 1.97; L 3.49
L3: F 2.27; P 2.19
D14: N 2.13; T 3.55; H 2.62
E18: H 3.57; D 2.6; P 2.79; C 2.46
H13: G 1.73; N 1.91; S 2.59; P 2.23
H12: I 1.98; T 3.57
S2: W 1.23; P 1.93; G 2.21; A 3.34
L21: P 2.75; G 2.9; Y 2.2; D 2.46
D9: V 1.94; H 1.85; Q 3.63; T 4.07; I 2.76
D17: P 2.96
M22: C 2.48; L 1.91; Y 2.35; F 1.19; N 2.52; S 2.59; H 2.01; G 1.79; D 2.11; I 2.04; P 2.68; A 2.11; T 3.4
F19: S 3.38; H 2.8; D 2.37; V 2.17
H1: V 1.77
S7: P 2.54; N 2.64; E 2.32; A 1.29; K 2.62
T8: P 2.14; D 2.23
A5: R 1.68; H 1.69; F 3.93; Y 2; P 2.3
V6: A 2.57; T 1.79; F 2.8; M 2.68; Q 2.21; W 3.53; C 2.93; E 2.26; H 1.83
P23: S 2.77; Q 2.84; Y 2.07; V 2.19; K 2.9
R4: H 2.76; Y 2.16; S 2; D 2.54; N 2.64; W 2.9; P 2.6

Variants of: B1
Assay: as above
Conditions: c terminus: native
Remark: another data set of the same source

Protein stability index of substitutions, site by site:
H15: N 2.76; R 2.32
H16: V 2.98
C20: D 3.8; T 3.61; L 4.58
D14: V 2.27; N 2.11
E18: H 2.32; C 2.85; R 2.35
H13: G 2.67; N 2.39; S 2.5
H12: I 2.53
S2: W 1.9; A 2.31
L21: Y 2.39
P10: D 2.88
D9: V 2.11
F19: S 2.47; V 2.41
S7: N 2.27; H 2.53
T8: D 2.53
A5: H 2.54; F 2.79
V6: A 3; F 1.92; M 2.51; C 2.52
P23: S 3.56; V 3.07
R4: W 2.38

Variants of: B2
Assay: as above
Conditions: c terminus: a fixed tail appended

Protein stability index, by site and new letter:
Y13: I 2.65; A 2.82; N 1.7; F 3.43; Q 1.39; P 1.84; K 1.44; D 2.35; C 2.25; L 2.59; H 2.27; M 2.14; E 1.59; G 2.14
S5: P 2.24; M 2.51; Y 3.24; A 1.72; H 2.09; I 2.74; Q 2.96; V 2.17; C 2.11; G 2.2; K 1.91; D 2.72; W 2.02; T 2.71; N 2.72; R 2.4; F 2.55; E 1.53; L 2.16
L9: D 2.32; T 2.45; R 1.79; Q 2.62; G 2.75; M 2.35; P 2.1; S 3.42; F 1.33; Y 2.57; H 2.31; W 3.66; V 2.06; N 3.25; C 3.98; I 3.14; K 2.57; E 2.33; A 2
M1: W 2.52; E 2.12; P 2.72; Y 2.09; D 3.17; Q 1.76; H 2.59; G 3.23; F 2.74; R 2.48; S 2.15; C 2.59; I 2.51; K 2.03; V 2.12; T 2.27
A2: Q 2.37; G 2.72; M 2.68; S 3.1; N 3.27; I 1.92; H 2.74; P 2.49; R 2.37; L 2.56; F 3.22; D 2.56; C 3.03; T 3.3; K 2.38; E 2.06
S4: D 2.74; N 1.7; Q 3.25; Y 2.38; G 2.49; K 2.21; W 2.93; H 2.24; V 2.91; I 2.21; E 4.38; T 2.81; M 1.76; A 2.6; P 3.27
S3: A 2.39; P 2.9; K 2.62; M 2.72; I 3.39; T 3.21; N 2.59; D 2.57; Q 2.21; E 3.48; G 3.46; Y 2.64; F 1.99; H 2.77; C 2.59; R 2.97; V 3
H12: W 2.66; M 2.39; P 2.5; Q 2.67; Y 3.26; I 2.75; F 3.51; R 1.91; D 2.39; N 2.12; K 2.23; L 1.49; A 2.3; E 2.55; V 2.67; G 2.11; S 3.12; C 3.05; T 1.81
G10: L 2.52; Y 4.41; V 2.14; E 2.13; I 1.73; T 3.54; M 2.73; Q 1.69; H 3.03; W 2.57; S 2.77; F 2.22; D 2.02; C 2.1; A 2.01; N 2.93; R 3.6; K 3.29
P8: W 3.73; R 3.92; H 2.22; V 2.15; M 3.28; S 2.54; D 2.98; E 2.25; F 2.74; G 4.24; L 1.66; A 2.97; Q 2.54; Y 3.53; N 3.63; K 3.91; I 2.73; T 2.53
T6: Y 2.66; S 2.95; C 1.67; W 2.27; M 2.4; E 3.45; R 2.82; H 3.22; N 2.58; K 2.59; Q 2.26; P 2.59; A 2.45; G 1.94; I 2.35; L 2.14; D 2.29; V 1.82
F11: M 2.82; W 1.89; E 1.94; Q 2.85; G 1.35; R 1.71; A 2.41; K 2.63; Y 2.49; H 1.67; L 2.36; S 1.9; I 2.02; D 2.03; P 2.33; T 1.81; N 2.69; C 2.63
V7: T 2.36; D 3.29; P 2.14; M 2.35; A 2.78; L 3.03; G 2.08; N 3.19; K 2.84; C 3.72; I 2.72; R 2.33; S 3.11; Y 3.3; H 2.67; E 3.31; W 2.36; F 2.17

Reference: the supplement of paper PMC10567573
